B1: Receptor-type tyrosine-protein phosphatase eta (Homo sapiens), Q12913 (parent)
chain: MKPAAREARLPPRSPGLRWALPLLLLLLRLGQILCAGGTPSPIPDPSVATVATGENGITQISSTAESFHKQNGTGTPQVETNTSEDGESSGANDSLRTPEQGSNGTDGASQKTPSSTGPSPVFDIKAVSISPTNVILTWKSNDTAASEYKYVVKHKMENEKTITVVHQPWCNITGLRPATSYVFSITPGIGNETWGDPRVIKVITEPIPVSDLRVALTGVRKAALSWSNGNGTASCRVLLESIGSHEELTQDSRLQVNISGLKPGVQYNINPYLLQSNKTKGDPLGTEGGLDASNTERSRAGSPTAPVHDESLVGPVDPSSGQQSRDTEVLLVGLEPGTRYNATVYSQAANGTEGQPQAIEFRTNAIQVFDVTAVNISATSLTLIWKVSDNESSSNYTYKIHVAGETDSSNLNVSEPRAVIPGLRSSTFYNITVCPVLGDIEGTPGFLQVHTPPVPVSDFRVTVVSTTEIGLAWSSHDAESFQMHITQEGAGNSRVEITTNQSIIIGGLFPGTKYCFEIVPKGPNGTEGASRTVCNRTVPSAVFDIHVVYVTTTEMWLDWKSPDGASEYVYHLVIESKHGSNHTSTYDKAITLQGLIPGTLYNITISPEVDHVWGDPNSTAQYTRPSNVSNIDVSTNTTAATLSWQNFDDASPTYSYCLLIEKAGNSSNATQVVTDIGITDATVTELIPGSSYTVEIFAQVGDGIKSLEPGRKSFCTDPASMASFDCEVVPKEPALVLKWTCPPGANAGFELEVSSGAWNNATHLESCSSENGTEYRTEVTYLNFSTSYNISITTVSCGKMAAPTRNTCTTGITDPPPPDGSPNITSVSHNSVKVKFSGFEASHGPIKAYAVILTTGEAGHPSADVLKYTYEDFKKGASDTYVTYLIRTEEKGRSQSLSEVLKYEIDVGNESTTLGYYNGKLEPLGSYRACVAGFTNITFHPQNKGLIDGAESYVSFSRYSDAVSLPQDPGVICGAVFGCIFGALVIVTVGGFIFWRKKRKDAKNNEVSFSQIKPKKSKLIRVENFEAYFKKQQADSNCGFAEEYEDLKLVGISQPKYAAELAENRGKNRYNNVLPYDISRVKLSVQTHSTDDYINANYMPGYHSKKDFIATQGPLPNTLKDFWRMVWEKNVYAIIMLTKCVEQGRTKCEEYWPSKQAQDYGDITVAMTSEIVLPEWTIRDFTVKNIQTSESHPLRQFHFTSWPDHGVPDTTDLLINFRYLVRDYMKQSPPESPILVHCSAGVGRTGTFIAIDRLIYQIENENTVDVYGIVYDLRMHRPLMVQTEDQYVFLNQCVLDIVRSQKDSKVDLIYQNTTAMTIYENLAPVTTFGKTNGYIA

The source of these data is IntAct's records for PubMed 23650535.

The variants in this test derive from B1. The settings on record: with flt3_human FLT3, P36888.
Chain of flt3_human FLT3, P36888 (P36888 whole entry): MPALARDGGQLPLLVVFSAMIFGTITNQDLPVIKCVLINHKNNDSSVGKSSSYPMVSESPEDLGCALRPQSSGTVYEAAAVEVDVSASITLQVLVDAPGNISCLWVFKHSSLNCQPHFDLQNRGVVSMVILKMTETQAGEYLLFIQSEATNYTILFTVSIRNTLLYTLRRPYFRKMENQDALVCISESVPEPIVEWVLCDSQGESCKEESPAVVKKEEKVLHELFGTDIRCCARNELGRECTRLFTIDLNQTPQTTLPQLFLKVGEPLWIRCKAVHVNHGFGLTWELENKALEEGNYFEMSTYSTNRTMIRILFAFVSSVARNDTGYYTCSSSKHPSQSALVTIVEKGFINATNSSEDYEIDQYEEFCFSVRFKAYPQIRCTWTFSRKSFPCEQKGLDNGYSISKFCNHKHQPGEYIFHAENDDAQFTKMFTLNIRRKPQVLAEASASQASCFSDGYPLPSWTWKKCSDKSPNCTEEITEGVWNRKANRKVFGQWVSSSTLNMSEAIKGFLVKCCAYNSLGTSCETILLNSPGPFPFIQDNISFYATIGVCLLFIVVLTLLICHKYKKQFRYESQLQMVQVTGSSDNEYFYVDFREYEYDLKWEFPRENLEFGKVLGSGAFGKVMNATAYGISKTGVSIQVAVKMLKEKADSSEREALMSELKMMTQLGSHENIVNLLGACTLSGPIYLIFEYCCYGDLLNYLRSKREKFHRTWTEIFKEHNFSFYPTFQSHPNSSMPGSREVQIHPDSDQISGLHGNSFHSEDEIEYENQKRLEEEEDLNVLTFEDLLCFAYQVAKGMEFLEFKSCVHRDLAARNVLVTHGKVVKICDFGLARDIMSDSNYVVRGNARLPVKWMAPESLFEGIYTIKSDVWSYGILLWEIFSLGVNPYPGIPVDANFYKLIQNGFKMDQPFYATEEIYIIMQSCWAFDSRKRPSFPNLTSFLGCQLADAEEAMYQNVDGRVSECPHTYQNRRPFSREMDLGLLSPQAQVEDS
For the variant C1239S, the “effect of a mutation on the interaction” value is listed as “increasing interaction strength”.
